Results: patent EP1454989A1

How the values were obtained:
human CD81 (human) = human CD81 (human) (UniProt P60033); experiment: cell-based or functional assay
[1] = biological target: HCV E2 glycoprotein of genotype 1a (hepatitis C virus genotype 1a) (UniProt P27958); experiment: cell-based or functional assay

Row | Substance | inhibition of infection by HCVpp of genotypes 1a and 1b (target cells pre-incubated with antibody at 30 µg/ml) (human CD81 (human)) [%] | inhibition of infectivity of HCVpp on Huh-7 cells (polypeptide at 4, 8, 16 µg/ml pre-incubated with the pseudo-particles) [1] [%]
1 | JS-81 anti-CD81 monoclonal antibody | > 90 | –
2 | recombinant GST-fusion polypeptide encompassing the large extra-cellular loop (LEL) of human CD81 (from UniProt P60033 113-201) | – | 38 to 54
